Reference: publication PMC10786891, “Massively parallel profiling of RNA-targeting CRISPR-Cas13d”
Where a chain is given by its changes, count along the chain named. Names and notes keep the numbering of the source.

T1: EsCas13d, nuclease-dead (Eubacterium siraeum, UniProt B0MS50, R295A;H300A;R849A;H854A)
T1 sequence: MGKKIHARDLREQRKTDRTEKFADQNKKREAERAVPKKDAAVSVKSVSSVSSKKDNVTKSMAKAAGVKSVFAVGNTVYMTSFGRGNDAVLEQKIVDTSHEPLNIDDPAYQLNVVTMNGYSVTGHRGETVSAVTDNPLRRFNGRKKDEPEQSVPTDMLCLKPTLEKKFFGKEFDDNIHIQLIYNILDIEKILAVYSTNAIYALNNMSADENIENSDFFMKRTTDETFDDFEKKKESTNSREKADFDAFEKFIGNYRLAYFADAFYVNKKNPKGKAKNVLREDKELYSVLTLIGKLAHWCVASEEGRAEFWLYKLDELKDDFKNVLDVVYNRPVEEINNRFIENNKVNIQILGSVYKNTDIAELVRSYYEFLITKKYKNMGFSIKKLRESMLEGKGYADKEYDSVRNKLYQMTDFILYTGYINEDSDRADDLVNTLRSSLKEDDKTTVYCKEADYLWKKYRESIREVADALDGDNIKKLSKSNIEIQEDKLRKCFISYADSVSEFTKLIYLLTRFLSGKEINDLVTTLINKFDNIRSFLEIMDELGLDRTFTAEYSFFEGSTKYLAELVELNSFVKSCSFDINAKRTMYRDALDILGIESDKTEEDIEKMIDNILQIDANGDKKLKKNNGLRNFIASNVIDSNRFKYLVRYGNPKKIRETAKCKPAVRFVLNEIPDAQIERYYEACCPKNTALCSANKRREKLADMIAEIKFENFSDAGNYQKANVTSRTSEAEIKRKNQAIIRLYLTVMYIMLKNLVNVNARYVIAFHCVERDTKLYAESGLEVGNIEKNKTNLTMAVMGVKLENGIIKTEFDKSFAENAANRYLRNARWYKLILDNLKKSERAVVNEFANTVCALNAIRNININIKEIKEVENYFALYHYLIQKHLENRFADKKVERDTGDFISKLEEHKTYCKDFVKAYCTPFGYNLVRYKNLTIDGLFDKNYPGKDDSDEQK

B1: target 1 A1G,A16U (mixed)
RNA 1: CACCCGUGCAAAAAUGCAGGGGUCUAAAACUGAGCGGAUAACCUCUCUAUGG
RNA 2: GGGAAUGGAUCCACAUCUACGAAUUCGUACCAUAGUGAGGUUAUCCGCUCGCCGAGAUCGGAAGAGCACACGU
B2: target 1 MT 5'PFS AUG 3'PFS UCU (mixed)
RNA 1: B1 RNA 1
RNA 2: B1 RNA 2 with G27A, A29G, U36A, G51A, C52U, G54U
B3: target 1 insC 3' of 20,insC 3' of 15 (mixed)
RNA 1: B1 RNA 1
RNA 2: GGGAAUGGAUCCACAUCUACGAAUUCGUACCACUAGAGCAGGUUAUCCGCUCACCGAGAUCGGAAGAGCACACGU
B4: target 1 MT 5'PFS GUU 3'PFS ACG (mixed)
RNA 1: B1 RNA 1
RNA 2: B1 RNA 2 with A29U, U36A, G51A, C52A
B5: target 1 MT 5'PFS GAA 3'PFS UCC (mixed)
RNA 1: B1 RNA 1
RNA 2: B1 RNA 2 with U28A, U36A, G51A, C52U, G54C
B6: target 1 MT 5'PFS UAG 3'PFS CCC (mixed)
RNA 1: B1 RNA 1
RNA 2: B1 RNA 2 with G27U, U28A, A29G, U36A, G51A, G54C
B7: target 1 MT 5'PFS GUG 3'PFS AUA (mixed)
RNA 1: B1 RNA 1
RNA 2: B1 RNA 2 with A29G, U36A, G51A, C52A, C53U, G54A
B8: target 1 MT 5'PFS UCA 3'PFS CCU (mixed)
RNA 1: B1 RNA 1
RNA 2: B1 RNA 2 with G27U, U28C, U36A, G51A, G54U
B9: target 1 MT 5'PFS AAG 3'PFS ACA (mixed)
RNA 1: B1 RNA 1
RNA 2: B1 RNA 2 with G27A, U28A, A29G, U36A, G51A, C52A, G54A
B10: target 1 MT 5'PFS GCA 3'PFS UCC (mixed)
RNA 1: B1 RNA 1
RNA 2: B1 RNA 2 with U28C, U36A, G51A, C52U, G54C
B11: target 1 MT 5'PFS AAG 3'PFS ACG (mixed)
RNA 1: B1 RNA 1
RNA 2: B1 RNA 2 with G27A, U28A, A29G, U36A, G51A, C52A
B12: target 1 MT 5'PFS GAA 3'PFS UCU (mixed)
RNA 1: B1 RNA 1
RNA 2: B1 RNA 2 with U28A, U36A, G51A, C52U, G54U
B13: target 1 MT 5'PFS GUG 3'PFS AUU (mixed)
RNA 1: B1 RNA 1
RNA 2: B1 RNA 2 with A29G, U36A, G51A, C52A, C53U, G54U
B14: target 1 MT 5'PFS GCG 3'PFS UCA (mixed)
RNA 1: B1 RNA 1
RNA 2: B1 RNA 2 with U28C, A29G, U36A, G51A, C52U, G54A
B15: target 1 insA 3' of 22,insU 3' of 4 (mixed)
RNA 1: B1 RNA 1
RNA 2: GGGAAUGGAUCCACAUCUACGAAUUCGUACACAUAGAGAGGUUAUCCGCUUCACCGAGAUCGGAAGAGCACACGU
B16: target 1 MT 5'PFS AAA 3'PFS UUG (mixed)
RNA 1: B1 RNA 1
RNA 2: B1 RNA 2 with G27A, U28A, U36A, G51A, C52U, C53U
B17: target 1 MT 5'PFS AAA 3'PFS AAA (mixed)
RNA 1: B1 RNA 1
RNA 2: B1 RNA 2 with G27A, U28A, U36A, G51A, C52A, C53A, G54A
B18: target 1 MT 5'PFS GAA 3'PFS UCA (mixed)
RNA 1: B1 RNA 1
RNA 2: B1 RNA 2 with U28A, U36A, G51A, C52U, G54A
B19: target 1 MT 5'PFS CUA 3'PFS CAG (mixed)
RNA 1: B1 RNA 1
RNA 2: B1 RNA 2 with G27C, U36A, G51A, C53A
B20: target 1 MT 5'PFS AAA 3'PFS AAC (mixed)
RNA 1: B1 RNA 1
RNA 2: B1 RNA 2 with G27A, U28A, U36A, G51A, C52A, C53A, G54C
B21: target 1 A1U,G12U (mixed)
RNA 1: B1 RNA 1
RNA 2: B1 RNA 2 with U36A, G40U, G51U
B22: target 1 MT 5'PFS AAG 3'PFS ACU (mixed)
RNA 1: B1 RNA 1
RNA 2: B1 RNA 2 with G27A, U28A, A29G, U36A, G51A, C52A, G54U
B23: target 1 MT 5'PFS GUU 3'PFS UAA (mixed)
RNA 1: B1 RNA 1
RNA 2: B1 RNA 2 with A29U, U36A, G51A, C52U, C53A, G54A
B24: target 1 MT 5'PFS GCG 3'PFS UCC (mixed)
RNA 1: B1 RNA 1
RNA 2: B1 RNA 2 with U28C, A29G, U36A, G51A, C52U, G54C
B25: target 1 MT 5'PFS GCG 3'PFS UCU (mixed)
RNA 1: B1 RNA 1
RNA 2: B1 RNA 2 with U28C, A29G, U36A, G51A, C52U, G54U
B26: target 1 MT 5'PFS GUG 3'PFS AUG (mixed)
RNA 1: B1 RNA 1
RNA 2: B1 RNA 2 with A29G, U36A, G51A, C52A, C53U
B27: target 1 MT 5'PFS GUU 3'PFS UAG (mixed)
RNA 1: B1 RNA 1
RNA 2: B1 RNA 2 with A29U, U36A, G51A, C52U, C53A
B28: target 1 MT 5'PFS GUU 3'PFS ACA (mixed)
RNA 1: B1 RNA 1
RNA 2: B1 RNA 2 with A29U, U36A, G51A, C52A, G54A
B29: target 1 MT 5'PFS AAG 3'PFS ACC (mixed)
RNA 1: B1 RNA 1
RNA 2: B1 RNA 2 with G27A, U28A, A29G, U36A, G51A, C52A, G54C
B30: target 1 MT 5'PFS UAU 3'PFS UAA (mixed)
RNA 1: B1 RNA 1
RNA 2: B1 RNA 2 with G27U, U28A, A29U, U36A, G51A, C52U, C53A, G54A
B31: target 1 MT 5'PFS ACU 3'PFS UCU (mixed)
RNA 1: B1 RNA 1
RNA 2: B1 RNA 2 with G27A, U28C, A29U, U36A, G51A, C52U, G54U
B32: target 1 MT 5'PFS GCG 3'PFS UCG (mixed)
RNA 1: B1 RNA 1
RNA 2: B1 RNA 2 with U28C, A29G, U36A, G51A, C52U
B33: target 1 MT 5'PFS AUG 3'PFS UCC (mixed)
RNA 1: B1 RNA 1
RNA 2: B1 RNA 2 with G27A, A29G, U36A, G51A, C52U, G54C
B34: target 1 MT 5'PFS AAA 3'PFS UUA (mixed)
RNA 1: B1 RNA 1
RNA 2: B1 RNA 2 with G27A, U28A, U36A, G51A, C52U, C53U, G54A
B35: target 1 MT 5'PFS GUU 3'PFS UAC (mixed)
RNA 1: B1 RNA 1
RNA 2: B1 RNA 2 with A29U, U36A, G51A, C52U, C53A, G54C
B36: target 1 MT 5'PFS GUU 3'PFS UAU (mixed)
RNA 1: B1 RNA 1
RNA 2: B1 RNA 2 with A29U, U36A, G51A, C52U, C53A, G54U
B37: target 1 MT 5'PFS GAA 3'PFS UCG (mixed)
RNA 1: B1 RNA 1
RNA 2: B1 RNA 2 with U28A, U36A, G51A, C52U
B38: target 1 MT 5'PFS CCG 3'PFS CGG (mixed)
RNA 1: B1 RNA 1
RNA 2: B1 RNA 2 with G27C, U28C, A29G, U36A, G51A, C53G
B39: target 1 MT 5'PFS UAG 3'PFS CCG (mixed)
RNA 1: B1 RNA 1
RNA 2: B1 RNA 2 with G27U, U28A, A29G, U36A, G51A
B40: target 1 MT 5'PFS GUG 3'PFS AUC (mixed)
RNA 1: B1 RNA 1
RNA 2: B1 RNA 2 with A29G, U36A, G51A, C52A, C53U, G54C

Target: T1, EsCas13d, nuclease-dead
Assay: crRNA (strand 1, pre-loaded); Mg2+; 40 mM Tris-HCl pH 7.5, 150 mM NaCl, 6 mM MgCl2, 1 mM DTT, 0.1% Tween-20, 0.2 mg/ml BSA; 25 C; 10 min per concentration, then washed
Conditions: tags: His6-TwinStrep-SUMO cleaved; N-terminal SNAP kept (SNAP-Surface 488); label: 3' end held by stalled T7 RNA polymerase

Binder	Kd [nM]
B1	45 ± 11
B2	10.6 ± 1.75
B3	10.1 ± 0.6
B4	33 ± 6.5
B5	27 ± 7
B6	~56
B7	18.2 ± 1.25
B8	27.5 ± 9.5
B9	23.5 ± 10
B10	13.7 ± 5.95
B11	15.5 ± 4
B12	25 ± 5
B13	15.8 ± 1.4
B14	17.7 ± 4.45
B15	11.3 ± 0.7
B16	11.7 ± 1.55
B17	33.5 ± 14.5
B18	29 ± 8
B19	~9.5
B20	30 ± 12

Binder	Kd [nM]
B21	14.1 ± 1.8
B22	16.5 ± 6
B23	20.9 ± 3.75
B24	19 ± 4
B25	13 ± 2.45
B26	16.2 ± 1
B27	17.4 ± 2.25
B28	26.5 ± 9.5
B29	~47.5
B30	34 ± 11
B31	~52
B32	12.8 ± 2.6
B33	20 ± 8.5
B34	10.1 ± 1.45
B35	14.3 ± 2.8
B36	16.9 ± 2.4
B37	39.5 ± 18
B38	19 ± 5.5
B39	22 ± 5.15
B40	19.9 ± 2.4
